Numbering of substitutions follows the chain as printed. In names and notes the source's numbering stands.
B1: human glycogenin 1 (GN1), full length, wild type, glucosylated, P46976-2 1-333 (enzyme)
chain: MTDQAFVTLTTNDAYAKGALVLGSSLKQHRTTRRLVVLATPQVSDSMRKVLETVFDEVIMVDVLDSGDSAHLTLMKRPELGVTLTKLHCWSLTQYSKCVFMDADTLVLANIDDLFDREELSAAPDPGWPDCFNSGVFVYQPSVETYNQLLHLASEQGSFDGGDQGILNTFFSSWATTDIRKHLPFIYNLSSISIYSYLPAFKVFGASAKVVHFLGRVKPWNYTYDPKTKSVKSEAHDPNMTHPEFLILWWNIFTTNVLPLLQQFGLVKDTCSYVNVEDVSGAISHLSLGEIPAMAQPFVSSEERKERWEQGQADYMGADSFDNIKRKLDTYLQ
modifications: here or on the partner: auto-glucosylated at tyrosine 195 (heterogeneous glucose chains; smear on SDS-PAGE, PAS positive); auto-glucosylated at tyrosine 195 (heterogeneous glucose chains; smear on SDS-PAGE, PAS positive)
B2: human glycogen synthase 1 (GS1), full length, phosphorylated, co-expressed with GN1 from the pFL vector (enzyme, UniProt P13807 1-737, looked up)
chain: MPLNRTLSMSSLPGLEDWEDEFDLENAVLFEVAWEVANKVGGIYTVLQTKAKVTGDEWGDNYFLVGPYTEQGVRTQVELLEAPTPALKRTLDSMNSKGCKVYFGRWLIEGGPLVVLLDVGASAWALERWKGELWDTCNIGVPWYDREANDAVLFGFLTTWFLGEFLAQSEEKPHVVAHFHEWLAGVGLCLCRARRLPVATIFTTHATLLGRYLCAGAVDFYNNLENFNVDKEAGERQIYHRYCMERAAAHCAHVFTTVSQITAIEAQHLLKRKPDIVTPNGLNVKKFSAMHEFQNLHAQSKARIQEFVRGHFYGHLDFNLDKTLYFFIAGRYEFSNKGADVFLEALARLNYLLRVNGSEQTVVAFFIMPARTNNFNVETLKGQAVRKQLWDTANTVKEKFGRKLYESLLVGSLPDMNKMLDKEDFTMMKRAIFATQRQSFPPVCTHNMLDDSSDPILTTIRRIGLFNSSADRVKVIFHPEFLSSTSPLLPVDYEEFVRGCHLGVFPSYYEPWGYTPAECTVMGIPSISTNLSGFGCFMEEHIADPSAYGIYILDRRFRSLDDSCSQLTSFLYSFCQQSRRQRIIQRNRTERLSDLLDWKYLGRYYMSARHMALSKAFPEHFTYEPNEADAAQGYRYPRPASVPPSPSLSRHSSPHQSEDEEDPRNGPLEEDGERYDEDEEAAKDRRNIRAPEWPRRASCTSSTSGSKRNSVDTATSSSLSTPSEPLSPTSSLGEERN
modifications: phosphoserine mapped by MS/MS at S8, S412, S641, S645, S652, S653, S657, S727, S731; phospho-S641 modelled in the cryo-EM map
notes: glycogen synthase 1 (muscle), human, encoded by GYS1, cDNA NM 002103, full length; In the pFL construct only GN carries the His tag; also called HsGS; GS WT
B3: human glycogen synthase 1 (GS1) Y600A (enzyme, UniProt P13807 1-737, looked up)
chain: B2 chain with Y600A
modifications: phosphorylation at S8, S641 and S641/S645 probed by immunoblot (Fig. 4b)
notes: glycogen synthase 1 (muscle), human, encoded by GYS1, cDNA NM 002103; also called GS Y600A; not shown: His6, N-terminal, cleaved
B4: human glycogen synthase 1 (GS1) H610E (enzyme, UniProt P13807 1-737, looked up)
chain: B2 chain with H610E
modifications: phosphorylation at S8, S641 and S641/S645 probed by immunoblot (Fig. 4b)
notes: glycogen synthase 1 (muscle), human, encoded by GYS1, cDNA NM 002103; also called GS H610E; not shown: His6, N-terminal, cleaved
B5: human glycogen synthase 1 (GS1) R603A (enzyme, UniProt P13807 1-737, looked up)
chain: B2 chain with R603A
modifications: phosphorylation at S8, S641 and S641/S645 probed by immunoblot (Fig. 4b)
notes: glycogen synthase 1 (muscle), human, encoded by GYS1, cDNA NM 002103; also called GS R603A; not shown: His6, N-terminal, cleaved
B6: human glycogen synthase 1 (GS1) W18A (enzyme, UniProt P13807 1-737, looked up)
chain: B2 chain with W18A
modifications: phosphorylation at S8, S641 and S641/S645 probed by immunoblot (Fig. 4b)
notes: glycogen synthase 1 (muscle), human, encoded by GYS1, cDNA NM 002103; also called GS W18A; not shown: His6, N-terminal, cleaved

Assays:
[1] = target: T1, human glycogenin 1 (GN1), full length, wild type, glucosylated (human), P46976; assay: negative-stain electron microscopy; purified co-expressed complex at 0.01-0.02 mg/mL in 25 mM HEPES pH 7.5, 150 mM NaCl, 1 mM TCEP, 10% glycerol; uranyl acetate stain; 2D classes and 3D map (C1, ~22 Å); settings: remark: other sources report otherwise
T1 chain: B1 chain

[2] = target: the molecule itself; assay: cryo-EM structure; purified GS-GN (WT) complex at 0.36 mg/mL (2.97 μM), 8% glycerol; map at 6.0 Å
[3] = target: T2, human glycogenin 1 (GN1) Y195F, full length, non-glucosylated (human, UniProt P46976-2 1-333, Y195F); assay: mass photometry; purified co-expressed complex diluted to 50 nM in 25 mM HEPES pH 7.5, 150 mM NaCl, 1 mM TCEP; Refyn OneMP, 60 s movies; settings: both partners purified
T2 construct: glycogenin 1, human, encoded by GYG1, cDNA NM 001184720, full length; expected ~37.5 kDa; the C-terminal GN34 region is modelled as residues 300-332, which fits the 333-residue isoform; Cloned in pFL (with untagged GS) and in pFastBac (co-infected with His6-TEV-GS WT or mutants); Both carry an N-terminal His6 tag and a cleavable site, so they are treated as one molecule; also called GN(Y195F); GN …
T2 sequence (looked up): B1 chain with Y195F

[4] = target: T3, human glycogenin 1 (GN1), full length, wild type, glucosylated (human, UniProt P46976-2 1-333, auto-glucosylated at tyrosine 195 (heterogeneous glucose chains; smear on SDS-PAGE, PAS positive)); assay: negative-stain electron microscopy; purified co-expressed complex at 0.01-0.02 mg/mL in 25 mM HEPES pH 7.5, 150 mM NaCl, 1 mM TCEP, 10% glycerol; uranyl acetate stain; 2D classes and 3D map (C1, ~22 Å); settings: both partners purified
T3 construct: glycogenin 1, human, encoded by GYG1, cDNA NM 001184720, full length; expected ~37.5 kDa; the C-terminal GN34 region is modelled as residues 300-332, which fits the 333-residue isoform; The isoform is inferred from the printed transcript id, the ~37.5 kDa size and the GN34 numbering; also called GN WT; HsGN; not shown: His6, N-terminal, cleaved
T3 sequence (looked up): B1 chain

[5] = target: the molecule itself; assay: mass photometry; purified co-expressed complex diluted to 50 nM in 25 mM HEPES pH 7.5, 150 mM NaCl, 1 mM TCEP; Refyn OneMP, 60 s movies

Binder	binding result [5]	also measured
B1	–	stoichiometry N [1]: 2
B2	–	stoichiometry N [2]: 4; stoichiometry N [3]: 1 GS per GN (4:4); stoichiometry N [4]: 1 GS per GN (4:4)
B3	binds	–
B4	binds	–
B5	binds	–
B6	binds	–

Source: publication PMC9188544, “Mechanism of glycogen synthase inactivation and interaction with glycogenin” (Nature Communications, 2022)
